Target: Reconstituted CENP-A chromatin (CENP-A nucleosome arrays with Myc-tagged histone H4) (UniProt Q569M3)
Assay: chromatin-bead binding read by immunofluorescence

Sequence of UniProt Q569M3 (Q569M3 whole entry, looked up): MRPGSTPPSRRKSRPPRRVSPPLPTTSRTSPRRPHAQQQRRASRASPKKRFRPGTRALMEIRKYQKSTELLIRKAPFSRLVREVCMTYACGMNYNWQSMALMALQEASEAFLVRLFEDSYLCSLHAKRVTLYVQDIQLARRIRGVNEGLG

| binding as percent of full-length M18BP1-2 [%] | fold enrichment on CENP-A chromatin relative to H3 chromatin [fold] | Substance |
| --- | --- | --- |
| 53 |  | M18BP1-2 truncation, amino acids 747-944 (in vitro translated) (domain or fragment) |
|  | 2.5 | Xenopus laevis M18BP1-1 (natural protein) |
|  | 5 | Xenopus laevis M18BP1-2, full length (natural protein) |
